From the supplement of paper PMC7877785 come the findings set out here.

The nature of the series: self-splicing fitness, log relative to wild type (ln ratio); higher = more splicing; Tetrahymena group I intron in knt gene, E. coli kanamycin selection, DiMSum; sequences stand for … in CUCUCU…GGAGGGAAAAGUUAUCAGGCAUGCACCUGGUAGCUAGUCUUUAAACCAAUAGAUUGCAUCGGUUUAAAAGGCAAGACCGUCAAAUUGCGGGAAAGGGGUCAACAGCCGUUCAGUACCAAGUCUCAGGGGAAACUUUGAGAUGGCCUUGCAAAGGGUAUGGUAAUAAGCUGACGGACAUGGUCCUAACCACGCAGCCAAGUCCUAAGUCAACAGAUCUUCUGUUGAUAUGGAUGCAGUUCACAGACUAAAUGUCGGUCGGGGAAGAUGUAUUCUUCUCAUAAGAUAUAGUCGGACCUCUCCUUAAUGGGAGCUAGCGGAUGAAGUGAUGCAACACUGGAGCCGCUGGGAACUAAUUUGUAUGCGAAAGUAUAUUGAUUAGUUUUGGAGUACUCGUGGUCG
The essentials:
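The eight P1ex-region nucleotides of an intron in the knt kanamycin-resistance gene on pET-22b(+) were all randomised and the library put into E. coli BL21(DE3). Six replicate transformations were grown overnight at 37°C or 30°C on LB agar with or without 25 μg/mL kanamycin, together with 100 μg/mL carbenicillin, 50 μM IPTG and 0.2% rhamnose. Colonies were pooled and amplicon-sequenced on an Illumina HiSeq 2500. Fitness from DiMSum is the error-weighted combination of wild-type-normalised replicate fold changes, kanamycin over none.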

± gives the uncertainty stated by the source.

On to UAAGAGCAAUAUUACGGGGG, for which the “self-splicing fitness (ln)” value (30 °C) is -2.94 ± 0.22.

GUAAAGCAAUAUUACGCAUG: the “self-splicing fitness (ln)” value is, setting by setting: (30 °C) -1.15 ± 0.077; (37 °C) -0.761 ± 0.1.

Consider UUGGAGCAAUAUUACGUCUU, for which the “self-splicing fitness (ln)” value (37 °C) was -2.09 ± 0.5. On to CUCUAGCAAUAUUACGUUUA, for which the “self-splicing fitness (ln)” value reads like this: (30 °C) -3.48 ± 0.25; (37 °C) -3.07 ± 0.29. Regarding AUGUAGCAAUAUUACGUGAC, the “self-splicing fitness (ln)” value is, setting by setting: (30 °C) -4.13 ± 0.34; (37 °C) -0.782 ± 0.2.

AUCCAGCAAUAUUACGGCAC: the “self-splicing fitness (ln)” value reads like this: (30 °C) -0.153 ± 0.085; (37 °C) -0.31 ± 0.099. Regarding CAAAAGCAAUAUUACGGAUC, the “self-splicing fitness (ln)” value is -3.73 ± 0.22 (30 °C) and -1.98 ± 0.16 (37 °C). For the sequence GUGGAGCAAUAUUACGAUCU, the “self-splicing fitness (ln)” value is, setting by setting: (30 °C) -2.68 ± 0.15; (37 °C) -2.6 ± 0.22. Take CAACAGCAAUAUUACGACAU: the “self-splicing fitness (ln)” value was -2.026 ± 0.012 (30 °C) and -1.04 ± 0.032 (37 °C).

Take GAUCAGCAAUAUUACGGACA: the “self-splicing fitness (ln)” value is, setting by setting: (30 °C) -0.118 ± 0.089; (37 °C) 0.127 ± 0.11. Turning to UUUUAGCAAUAUUACGCACU, the “self-splicing fitness (ln)” value is, setting by setting: (30 °C) -0.447 ± 0.12; (37 °C) -0.218 ± 0.15. Regarding CGGAAGCAAUAUUACGACGU, the “self-splicing fitness (ln)” value reads like this: (30 °C) -2.55 ± 0.11; (37 °C) -0.27 ± 0.12. For CUUAAGCAAUAUUACGCGAA, the “self-splicing fitness (ln)” value (30 °C) is -2.82 ± 0.24 and the “self-splicing fitness (ln)” value (37 °C) was -2.82 ± 0.34. The corresponding values for UAAAAGCAAUAUUACGGUAA are -1.94 ± 0.14 and -0.97 ± 0.098. The corresponding values for GACGAGCAAUAUUACGGGUC are -3.77 ± 0.21 and -3.28 ± 0.25. For UUGCAGCAAUAUUACGUACC the same measures were -3.54 ± 0.47 and -2.55 ± 0.33. On to CCUCAGCAAUAUUACGGUAU, for which the “self-splicing fitness (ln)” value is -4.53 ± 0.24 (30 °C) and -2.52 ± 0.15 (37 °C).

Take CGGUAGCAAUAUUACGUACC: the “self-splicing fitness (ln)” value (30 °C) is -3.27 ± 0.4 and the “self-splicing fitness (ln)” value (37 °C) was -1.89 ± 0.3.

In the case of AACGAGCAAUAUUACGAUAU, the “self-splicing fitness (ln)” value (30 °C) was -3.13 ± 0.21 and the “self-splicing fitness (ln)” value (37 °C) was -1.3 ± 0.17. Turning to UCGGAGCAAUAUUACGCUUA, the “self-splicing fitness (ln)” value is -2.33 ± 0.33 (30 °C) and -1.89 ± 0.41 (37 °C). The corresponding values for UGCAAGCAAUAUUACGACGC are -1.44 ± 0.4 and -0.865 ± 0.24. For CAAUAGCAAUAUUACGUGAC the same measures were -3.84 ± 0.25 and -2.21 ± 0.22.

In the case of CAGCAGCAAUAUUACGCUUA, the “self-splicing fitness (ln)” value by setting is: (30 °C) -1.51 ± 0.13; (37 °C) -0.645 ± 0.12.

With GGAUAGCAAUAUUACGCGAG, the “self-splicing fitness (ln)” value is -1.38 ± 0.15 (30 °C) and -1.16 ± 0.14 (37 °C).

As to GAGUAGCAAUAUUACGUGGC, the “self-splicing fitness (ln)” value is -2.33 ± 0.15 (30 °C) and -2.03 ± 0.28 (37 °C). On to CUACAGCAAUAUUACGUCGC, for which the “self-splicing fitness (ln)” value reads like this: (30 °C) -4.05 ± 0.3; (37 °C) -2.11 ± 0.23. The corresponding values for UCUUAGCAAUAUUACGAUCU are -2.59 ± 0.29 and -2.04 ± 0.29.

With GAGUAGCAAUAUUACGACAG, the “self-splicing fitness (ln)” value reads like this: (30 °C) -3.07 ± 0.44; (37 °C) -2.99 ± 0.24. The corresponding values for CAUAAGCAAUAUUACGUAAC are -3.03 ± 0.23 and -2.1 ± 0.26. As to CGCCAGCAAUAUUACGGGCC, the “self-splicing fitness (ln)” value by setting is: (30 °C) -3.13 ± 0.21; (37 °C) -1.72 ± 0.2. Consider AGCAAGCAAUAUUACGAAUU, for which the “self-splicing fitness (ln)” value (30 °C) is -2.55 ± 0.08 and the “self-splicing fitness (ln)” value (37 °C) was -1.68 ± 0.09. The corresponding values for CUAGAGCAAUAUUACGCUAA are -3 ± 0.23 and -2.49 ± 0.25. The corresponding values for CUGCAGCAAUAUUACGUAUA are -2.64 ± 0.17 and -2.16 ± 0.18.

In the case of GUAGAGCAAUAUUACGGAAC, where the note is “30 °C”, the “self-splicing fitness (ln)” value is -1.59 ± 0.3. With GGUUAGCAAUAUUACGCCUU, the “self-splicing fitness (ln)” value (30 °C) was -1.48 ± 0.11 and the “self-splicing fitness (ln)” value (37 °C) was -0.406 ± 0.14. The corresponding values for UACUAGCAAUAUUACGAGGA are -3.18 ± 0.2 and -1.54 ± 0.13. For CUUCAGCAAUAUUACGAGAA, under “37 °C”, the “self-splicing fitness (ln)” value is -0.0336 ± 0.41. On to CAUGAGCAAUAUUACGCUUA, for which the “self-splicing fitness (ln)” value runs as follows: (30 °C) -3.77 ± 0.43; (37 °C) -2.19 ± 0.25. Take GCACAGCAAUAUUACGAAGC: the “self-splicing fitness (ln)” value is -2.52 ± 0.23 (30 °C) and -0.749 ± 0.15 (37 °C).

CGCGAGCAAUAUUACGAGUA: the “self-splicing fitness (ln)” value was -3.55 ± 0.32 (30 °C) and -2.61 ± 0.27 (37 °C). As to AUCGAGCAAUAUUACGCCUA, the “self-splicing fitness (ln)” value (37 °C) is -2.39 ± 0.32.

With CGCGAGCAAUAUUACGGACU, the “self-splicing fitness (ln)” value is -1.82 ± 0.3 (30 °C) and -0.107 ± 0.26 (37 °C). For AUGAAGCAAUAUUACGUACG the same measures were -0.461 ± 0.13 and -0.446 ± 0.093. Turning to CUCGAGCAAUAUUACGUUGU, the “self-splicing fitness (ln)” value by setting is: (30 °C) -4.17 ± 0.18; (37 °C) -2.07 ± 0.14.

For the sequence CUCAAGCAAUAUUACGUAUC, the “self-splicing fitness (ln)” value was -2.94 ± 0.14 (30 °C) and -1.79 ± 0.14 (37 °C). For AAACAGCAAUAUUACGAGGG the same measures were -3.69 ± 0.15 and -2.33 ± 0.15. On to CCAAAGCAAUAUUACGGCUG, for which the “self-splicing fitness (ln)” value reads like this: (30 °C) -0.987 ± 0.069; (37 °C) -0.917 ± 0.088.

AAUAAGCAAUAUUACGAGUC: the “self-splicing fitness (ln)” value by setting is: (30 °C) -3.1 ± 0.28; (37 °C) -1.48 ± 0.18. In the case of GAAUAGCAAUAUUACGAGUG, the “self-splicing fitness (ln)” value was -2.01 ± 0.076 (30 °C) and -2.34 ± 0.13 (37 °C).

For the sequence GUAAAGCAAUAUUACGCCCG, the “self-splicing fitness (ln)” value (30 °C) was 0.162 ± 0.18 and the “self-splicing fitness (ln)” value (37 °C) was -0.247 ± 0.19. For UCGAAGCAAUAUUACGCUGG the same measures were -1.85 ± 0.13 and -2.04 ± 0.16.

In the case of CCCUAGCAAUAUUACGGUGU, the “self-splicing fitness (ln)” value runs as follows: (30 °C) -3.05 ± 0.098; (37 °C) -2.19 ± 0.11. For UGUCAGCAAUAUUACGCUGA the same measures were -0.7 ± 0.23 and -0.59 ± 0.27. As for GGACAGCAAUAUUACGUGCG, the “self-splicing fitness (ln)” value reads like this: (30 °C) -0.326 ± 0.064; (37 °C) 0.365 ± 0.087.

ACUGAGCAAUAUUACGGUGG: the “self-splicing fitness (ln)” value is, setting by setting: (30 °C) -3.61 ± 0.16; (37 °C) -2.37 ± 0.18.

As for ACGCAGCAAUAUUACGAAGU, the “self-splicing fitness (ln)” value (30 °C) is -3.6 ± 0.27 and the “self-splicing fitness (ln)” value (37 °C) was -0.721 ± 0.13. For GGGAAGCAAUAUUACGUCAU the same measures were -1.42 ± 0.11 and -0.7 ± 0.13. For the sequence AGGUAGCAAUAUUACGCAUU, the “self-splicing fitness (ln)” value (30 °C) was -1.862 ± 0.015 and the “self-splicing fitness (ln)” value (37 °C) is -0.988 ± 0.034. With GAACAGCAAUAUUACGUAUC, the “self-splicing fitness (ln)” value by setting is: (30 °C) -2.83 ± 0.1; (37 °C) -1.39 ± 0.12.

For ACUAAGCAAUAUUACGUACC, the “self-splicing fitness (ln)” value reads like this: (30 °C) -1.05 ± 0.16; (37 °C) -0.715 ± 0.2. The corresponding values for CAGCAGCAAUAUUACGUAUC are -3.6 ± 0.19 and -2.13 ± 0.13. On to CCGGAGCAAUAUUACGCACC, for which, for the setting “30 °C”, the “self-splicing fitness (ln)” value is -1.27 ± 0.38.

Regarding UCUAAGCAAUAUUACGCUUA, the “self-splicing fitness (ln)” value (30 °C) was -2.29 ± 0.21 and the “self-splicing fitness (ln)” value (37 °C) was -1.75 ± 0.29.

For AAGUAGCAAUAUUACGAUUG, the “self-splicing fitness (ln)” value reads like this: (30 °C) -3.24 ± 0.28; (37 °C) -0.999 ± 0.22. With CGACAGCAAUAUUACGUGGG, the “self-splicing fitness (ln)” value is -3.19 ± 0.14 (30 °C) and -1.54 ± 0.1 (37 °C). The corresponding values for AUGCAGCAAUAUUACGGUAG are -3.81 ± 0.16 and -2.4 ± 0.14. For UGGUAGCAAUAUUACGAGCC the same measures were -2.3 ± 0.32 and -1.91 ± 0.26. Regarding GAGAAGCAAUAUUACGGGCU, the “self-splicing fitness (ln)” value by setting is: (30 °C) -2.57 ± 0.14; (37 °C) -1.16 ± 0.14.

In the case of GAAGAGCAAUAUUACGUGUU, the “self-splicing fitness (ln)” value reads like this: (30 °C) -4.18 ± 0.23; (37 °C) -2.12 ± 0.18. Turning to ACUAAGCAAUAUUACGUAGA, the “self-splicing fitness (ln)” value is -3.25 ± 0.12 (30 °C) and -1.28 ± 0.1 (37 °C).

Regarding AGGUAGCAAUAUUACGUGCC, the “self-splicing fitness (ln)” value (30 °C) is -1.99 ± 0.022 and the “self-splicing fitness (ln)” value (37 °C) is -1.22 ± 0.037. Regarding UUCGAGCAAUAUUACGCCUC, the “self-splicing fitness (ln)” value runs as follows: (30 °C) -3.3 ± 0.4; (37 °C) -1.3 ± 0.4. Regarding UACCAGCAAUAUUACGCUAC, the “self-splicing fitness (ln)” value (30 °C) was -3.17 ± 0.2 and the “self-splicing fitness (ln)” value (37 °C) is -1.83 ± 0.18.

Take GCAAAGCAAUAUUACGCUGA: the “self-splicing fitness (ln)” value (30 °C) was -2.59 ± 0.12 and the “self-splicing fitness (ln)” value (37 °C) is -2.04 ± 0.11. AAAUAGCAAUAUUACGUUGG: the “self-splicing fitness (ln)” value runs as follows: (30 °C) -4.2 ± 0.22; (37 °C) -2.57 ± 0.21. Consider AGGAAGCAAUAUUACGUUGU, for which the “self-splicing fitness (ln)” value is -3.98 ± 0.18 (30 °C) and -2.82 ± 0.15 (37 °C).

Take ACGCAGCAAUAUUACGACAG: the “self-splicing fitness (ln)” value runs as follows: (30 °C) -1.11 ± 0.076; (37 °C) -0.445 ± 0.099.
